According to patent US20150299264A1:
No end group written: not given here.

Target: 40 non-kinase enzyme assays, including phosphatases and proteases
Test: cell-based or functional assay
Settings: scale: % inhibition of activity at 100 µM MMI-0100

For YARAAARQARAKALARQLGVAA (also: acetate salt) [MMI-0100 peptide (…; SEQ ID NO: 1)], the inhibition of activity in enzyme assays in the presence and absence of 100 µM MMI-0100 was under 50.
